The series concerns the molecule itself. The experiment in a line: negative-stain electron microscopy; purified (and labelled) capsids adsorbed on glow-discharged carbon-coated grids, 2% uranyl acetate.

This is an account of results in article PMC7375812, “Molecular determinants of large cargo transport into the nucleus” (eLife, 2020).

Changes are numbered by the printed parent chain. Names and notes keep the numbering of the source.

B1: MS2^S37P capsid (bacteriophage MS2 coat protein with S37P and T15C) (natural protein)
chain: MASNFTQFVLVDNGGCGDVTVAPSNFANGVAEWISSNPRSQAYKVTCSVRQSSAQNRKYTIKVEVPKVATQTVGGVELPVAAWRSYLNMELTIPIFATNSDCELIVKAMQGLLKDGNPIPSAIAANSGIY
modifications: the introduced cysteine (T15C) coupled by maleimide to Alexa Fluor 647 or to the NLS peptide Mal-…, in a share of the copies each
notes: coat protein of bacteriophage MS2; The NLS peptide is a branch on the cysteine, not part of the chain; source: E. coli BL21 AI, purified (PEI, ammonium sulphate, tangential flow, size exclusion after labelling); copies: 60
For the protein B1, the binding result is “binds”.

B2: MS2 capsid (wild-type bacteriophage MS2 coat protein with T15C) (natural protein)
chain: B1 chain with P38S
modifications: the introduced cysteine (T15C) coupled by maleimide to Alexa Fluor 647 or to the NLS peptide Mal-…, in a share of the copies each
notes: coat protein of bacteriophage MS2; The NLS peptide is a branch on the cysteine, not part of the chain; source: E. coli BL21 AI, purified (PEI, ammonium sulphate, tangential flow, size exclusion after labelling); copies: 180
B2: the binding result is “binds”.
